The text below walks through data of patent US20190031760A1 (Hoffmann-La Roche, published 2019).

For assay [1], the target named is T1, avi-Fc-cynomolgus ASGPR H1 stalk (cynomolgus, biotinylated at the N-terminal Avi tag).
T1 construct: Homodimeric Fc fusion (wild type Fc); also called cyASGPR H1 stalk
Kind of assay: SPR (ProteOn XPR36), antigen captured by neutravidin, Fab as analyte.

Assay [2] addresses T2, avi-Fc-human ASGPR H1 stalk CRD (human, biotinylated at the N-terminal Avi tag).
T2 construct: Homodimeric (bivalent) Fc fusion of the human ASGPR H1 ECD (stalk and CRD); also called huASGPR H1 stalk CRD; Fc-stalk-CRD
Described as above.

Assay [3] deals with T3, avi-Fc-human CLEC10A stalk CRD (human, biotinylated at the N-terminal Avi tag).
T3 construct: Homodimeric Fc fusion of the human CLEC10A ECD, closest homologue of ASGPR H1, used as specificity control; also called huCLEC10A stalk CRD
Described as above.

Assay [4] deals with T4, avi-Fc-cynomolgus ASGPR H1 stalk CRD (cynomolgus, biotinylated at the N-terminal Avi tag).
T4 construct: Homodimeric Fc fusion of the cynomolgus ASGPR H1 ECD; also called cyASGPR H1 stalk CRD
Described as above.

Assay [5] addresses T5, avi-Fc-human ASGPR H1 stalk (human, biotinylated at the N-terminal Avi tag).
T5 construct: Homodimeric Fc fusion (wild type Fc); also called huASGPR H1 stalk; Fc-stalk
The assay is described as above.

Assay [6] concerns the target T6, full-length human ASGPR H1 with a C-terminal SNAP tag, on transfected HEK293 cells (human, UniProt P07306 1-291, SNAP tag labeled with SNAP-Lumi4Tb (terbium)).
T6 construct: whole, on cells; Transiently expressed in HEK293 cells for the FRET assay; also called transmembrane ASGPR H1-SNAP tag fusion protein labeled with terbium
T6 sequence (looked up): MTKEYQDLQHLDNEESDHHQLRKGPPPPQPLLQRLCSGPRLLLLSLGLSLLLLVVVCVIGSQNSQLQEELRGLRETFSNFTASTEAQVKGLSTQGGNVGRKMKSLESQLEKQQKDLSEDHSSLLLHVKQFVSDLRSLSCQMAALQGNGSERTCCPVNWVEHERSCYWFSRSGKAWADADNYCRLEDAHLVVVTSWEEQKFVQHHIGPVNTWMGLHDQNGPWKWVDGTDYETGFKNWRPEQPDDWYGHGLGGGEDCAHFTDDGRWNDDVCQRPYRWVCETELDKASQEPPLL
Kind of assay: FRET on HEK293 cells expressing terbium-labeled ASGPR H1-SNAP; IgG1 at 50-0.39 nM, anti-humanFc-d2 as acceptor.

The target of assay [7] is T7, avi-Fc-human ASGPR H1 CRD (human, UniProt P0DOX5 223-449 = IgG part, biotinylated at the N-terminal Avi tag).
T7 construct: also called Fc-CRD; hu/cyASGPR H1 CRD
Kind of assay: SPR (ProteOn XPR36), antigen captured by neutravidin, Fab as analyte.

In assay [8] the target is T7, avi-Fc-human ASGPR H1 CRD. Nature of the assay: SPR (ProteOn XPR36), antigen captured by neutravidin, antibody construct as analyte.
Assay [9] addresses T8, human ASGPR H1 on ASGPR-positive hepatic cells (HepG2, primary human hepatocytes, Huh-7) (human, UniProt P07306 1-291).
T8 construct: whole, on cells; Endogenous receptor on cells; the antibodies were selected on H1; also called surface-exposed ASGPR
T8 sequence (looked up): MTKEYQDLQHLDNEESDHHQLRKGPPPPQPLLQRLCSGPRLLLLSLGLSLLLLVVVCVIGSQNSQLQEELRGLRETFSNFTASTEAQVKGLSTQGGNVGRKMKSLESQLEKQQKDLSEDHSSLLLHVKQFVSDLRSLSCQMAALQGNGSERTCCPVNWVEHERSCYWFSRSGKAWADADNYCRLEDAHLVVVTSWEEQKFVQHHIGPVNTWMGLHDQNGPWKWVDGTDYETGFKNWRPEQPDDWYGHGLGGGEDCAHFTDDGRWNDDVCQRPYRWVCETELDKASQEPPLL
Kind of assay: FACS on HepG2 cells, FITC-labeled IgG 30 µg/ml bound at 4°C, washed, then 37°C for up to 120 min; PE anti-Fc detection of surface antibody.

Assay [10] concerns the target T7, avi-Fc-human ASGPR H1 CRD. Nature of the assay: SPR (ProteOn XPR36), antigen captured by neutravidin, Fab as analyte. The source holds these as a separate data set.
The target of assay [11] is T8, human ASGPR H1 on ASGPR-positive …. Nature of the assay: FACS on HepG2 cells, human IgG1 in a dilution row up to 20 µg/ml, 30 min at 4°C, FITC anti-human IgG Fc secondary.

T5 sequence (chain, as listed by the source limits assumed): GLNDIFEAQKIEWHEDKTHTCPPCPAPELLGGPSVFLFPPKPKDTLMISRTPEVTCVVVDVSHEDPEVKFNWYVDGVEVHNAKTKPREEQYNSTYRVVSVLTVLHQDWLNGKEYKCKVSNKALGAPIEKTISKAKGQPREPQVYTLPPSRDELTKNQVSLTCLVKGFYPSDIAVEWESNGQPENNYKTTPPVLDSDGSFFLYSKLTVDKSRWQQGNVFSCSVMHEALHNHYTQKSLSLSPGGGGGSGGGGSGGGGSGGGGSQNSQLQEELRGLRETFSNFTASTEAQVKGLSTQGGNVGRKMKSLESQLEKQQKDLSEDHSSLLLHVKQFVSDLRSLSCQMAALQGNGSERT
T1 sequence (chain, as listed by the source limits assumed): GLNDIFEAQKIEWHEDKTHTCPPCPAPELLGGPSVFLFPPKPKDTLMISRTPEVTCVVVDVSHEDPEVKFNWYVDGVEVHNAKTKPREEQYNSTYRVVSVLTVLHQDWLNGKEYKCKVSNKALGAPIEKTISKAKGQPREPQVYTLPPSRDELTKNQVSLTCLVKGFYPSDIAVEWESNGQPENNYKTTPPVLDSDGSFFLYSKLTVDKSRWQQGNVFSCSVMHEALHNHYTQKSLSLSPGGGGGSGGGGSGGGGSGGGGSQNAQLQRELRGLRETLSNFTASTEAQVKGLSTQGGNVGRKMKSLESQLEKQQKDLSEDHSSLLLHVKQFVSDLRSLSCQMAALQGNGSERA
T3 sequence (chain, as listed by the source limits assumed): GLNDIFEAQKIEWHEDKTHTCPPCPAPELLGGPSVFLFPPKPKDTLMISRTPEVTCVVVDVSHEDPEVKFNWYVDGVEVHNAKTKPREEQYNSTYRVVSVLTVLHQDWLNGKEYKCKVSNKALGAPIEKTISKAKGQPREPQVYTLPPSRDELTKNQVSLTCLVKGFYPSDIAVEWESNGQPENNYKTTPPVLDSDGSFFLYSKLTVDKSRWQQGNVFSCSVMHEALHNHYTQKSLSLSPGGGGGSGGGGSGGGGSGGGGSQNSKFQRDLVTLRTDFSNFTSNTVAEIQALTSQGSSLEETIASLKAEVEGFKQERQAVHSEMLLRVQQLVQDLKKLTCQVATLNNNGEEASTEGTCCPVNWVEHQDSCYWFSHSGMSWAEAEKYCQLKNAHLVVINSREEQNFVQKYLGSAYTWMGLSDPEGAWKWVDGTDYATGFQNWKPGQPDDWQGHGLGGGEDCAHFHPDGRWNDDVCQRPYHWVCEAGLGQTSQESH

B1: 4F3 Fab (Fab, V domains shown)
VH: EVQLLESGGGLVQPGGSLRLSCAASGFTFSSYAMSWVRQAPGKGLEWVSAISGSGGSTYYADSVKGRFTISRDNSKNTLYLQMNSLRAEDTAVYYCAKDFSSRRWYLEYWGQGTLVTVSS
VL: SSELTQDPAVSVALGQTVRITCQGDSLRSYYASWYQQKPGQAPVLVIYGKNNRPSGIPDRFSGSSSGNTASLTITGAQAEDEADYYCNSLERIGYLSYVFGGGTKLTVL
notes: Human lambda Fab from E. coli; also called clone 4F3
For orientation: Kd means the free concentration of one partner at which half of the binding sites on the other are occupied at equilibrium, for simple one-to-one binding. One may read the koff as a measure of how fast the partners let go of each other. Broadly, the kon is the second-order rate constant of association. A higher kon goes with fast association. In the case of B1, the Kd in assay [1] is 33.6 nM; in [2] it was 18.2 nM; in assay [4], 21.6 nM; in assay [5] it was 29.5 nM. The koff is 0.0048 s⁻¹ in [1], 0.00408 s⁻¹ in assay [2], 0.00365 s⁻¹ in [4] and 0.00445 s⁻¹ in assay [5]. In addition, the association rate constant (kon) worked out at 143000 M⁻¹ s⁻¹ in [1], 224000 M⁻¹ s⁻¹ in assay [2], 169000 M⁻¹ s⁻¹ in assay [4] and 151000 M⁻¹ s⁻¹ in assay [5]. In addition, in assay [3], the binding result was “no binding”.

B2: 4F3 IgG (antibody, V domains shown)
VH: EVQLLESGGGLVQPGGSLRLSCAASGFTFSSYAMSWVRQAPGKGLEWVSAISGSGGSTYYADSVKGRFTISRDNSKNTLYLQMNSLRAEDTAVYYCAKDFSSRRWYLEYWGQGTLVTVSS
VL: SSELTQDPAVSVALGQTVRITCQGDSLRSYYASWYQQKPGQAPVLVIYGKNNRPSGIPDRFSGSSSGNTASLTITGAQAEDEADYYCNSLERIGYLSYVFGGGTKLTVL
notes: also called 4F3 human IgG1 antibody; clone 4F3
In turn, B2 registered a Kd in assay [6] of 4.5 nM.

B3: R7E12 IgG (antibody, V domains shown)
VH: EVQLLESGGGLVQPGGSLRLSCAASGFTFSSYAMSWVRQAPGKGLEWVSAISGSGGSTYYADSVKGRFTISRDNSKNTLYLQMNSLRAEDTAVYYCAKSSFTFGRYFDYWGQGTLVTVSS
VL: SSELTQDPAVSVALGQTVRITCQGDSLRSYYASWYQQKPGQAPVLVIYGKNNRPSGIPDRFSGSSSGNTASLTITGAQAEDEADYYCNSRKSSSKNVVFGGGTKLTVL
notes: To be rechecked
In turn, B3 displayed a Kd in assay [6] of 22 nM.

B4: 52C4 Fab (Fab, V domains shown)
VH: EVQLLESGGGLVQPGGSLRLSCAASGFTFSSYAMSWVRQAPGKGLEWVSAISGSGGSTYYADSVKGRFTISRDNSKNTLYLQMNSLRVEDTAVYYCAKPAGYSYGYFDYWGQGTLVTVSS
VL: SSELTQDPAVSVALGQTVRITCQGDSLRSYYASWYQQKPGQAPVLVIYGKNNRPSGIPDRFSGSSSGNTASLTITGAQAEDEADYYCNSGASSGNQLVFGGGTKLTVL
notes: Human lambda Fab from E. coli
In [7], B4 showed a dissociation constant Kd of 28.6 nM, a koff of 0.00396 s⁻¹ and a kon of 139000 M⁻¹ s⁻¹. The binding result in assay [3] was “no binding”. In assay [8], this molecule came in with an equilibrium dissociation constant (Kd) of 28.6 nM, a koff of 0.00396 s⁻¹ and a kon of 139000 M⁻¹ s⁻¹.

B5: R7E12 Fab (Fab, V domains shown)
VH: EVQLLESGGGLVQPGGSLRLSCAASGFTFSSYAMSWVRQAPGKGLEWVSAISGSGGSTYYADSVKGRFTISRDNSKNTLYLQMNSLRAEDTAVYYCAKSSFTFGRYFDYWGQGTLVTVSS
VL: SSELTQDPAVSVALGQTVRITCQGDSLRSYYASWYQQKPGQAPVLVIYGKNNRPSGIPDRFSGSSSGNTASLTITGAQAEDEADYYCNSRKSSSKNVVFGGGTKLTVL
notes: To be rechecked
In the case of B5, in [2], binding was characterised by a dissociation constant (Kd) of 9.12 nM, the koff came out at 0.00268 s⁻¹ and the kon came out at 294000 M⁻¹ s⁻¹. In addition, the binding result in assay [3] is “no binding”. Also, in assay [4], the Kd was found to be 9.55 nM, the koff is 0.00236 s⁻¹ and the kon is 247000 M⁻¹ s⁻¹.

B6: R9E10 Fab (Fab, V domains shown)
VH: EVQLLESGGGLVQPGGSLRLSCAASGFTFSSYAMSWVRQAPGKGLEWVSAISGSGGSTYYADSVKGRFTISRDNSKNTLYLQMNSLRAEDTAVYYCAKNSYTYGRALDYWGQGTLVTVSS
VL: SSELTQDPAVSVALGQTVRITCQGDSLRSYYASWYQQKPGQAPVLVIYGKNNRPSGIPDRFSGSSSGNTASLTITGAQAEDEADYYCNSRNVRGKLVFGGGTKLTVL
notes: Human lambda Fab from E. coli
In assay [2], B6 yielded a Kd of 3.6 nM, a koff of 0.00211 s⁻¹ and a kon of 586000 M⁻¹ s⁻¹. For the same molecule, the binding result in assay [3] is “no binding”. In assay [4], the equilibrium dissociation constant (Kd) amounted to 4.34 nM, the dissociation rate constant (koff) stood at 0.00199 s⁻¹ and the on-rate (kon) was found to be 460000 M⁻¹ s⁻¹.

B7: R5C2 IgG (antibody, V domains shown)
VH: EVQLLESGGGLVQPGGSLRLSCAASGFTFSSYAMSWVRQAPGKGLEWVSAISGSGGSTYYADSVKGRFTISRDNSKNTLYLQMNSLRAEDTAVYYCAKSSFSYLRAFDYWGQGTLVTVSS
VL: SSELTQDPAVSVALGQTVRITCQGDSLRSYYASWYQQKPGQAPVLVIYGRNNRPSGIPDRFSGSSSGNTASLTITGAQAEDEADYYCNSRDRRGYSVFGGGTKLTVL
notes: also called R5C2 human IgG1 antibody
Regarding B7, binding in [6] was characterised by a dissociation constant (Kd) of 5.9 nM.

B8: R5C2 Fab (Fab, V domains shown)
VH: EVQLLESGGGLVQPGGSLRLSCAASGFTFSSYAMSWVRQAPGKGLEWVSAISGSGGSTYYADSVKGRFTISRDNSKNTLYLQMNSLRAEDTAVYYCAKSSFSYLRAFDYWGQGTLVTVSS
VL: SSELTQDPAVSVALGQTVRITCQGDSLRSYYASWYQQKPGQAPVLVIYGRNNRPSGIPDRFSGSSSGNTASLTITGAQAEDEADYYCNSRDRRGYSVFGGGTKLTVL
notes: Human lambda Fab from E. coli
In the case of B8, in [2], the Kd was 2.65 nM, the koff stood at 0.00112 s⁻¹ and the kon stood at 423000 M⁻¹ s⁻¹. Moreover, the binding result in [3] was “no binding”. In assay [4], binding was put at a Kd of 3.41 nM, the koff is 0.00114 s⁻¹ and the kon came to 334000 M⁻¹ s⁻¹.

B9: R9E10 IgG (antibody, V domains shown)
VH: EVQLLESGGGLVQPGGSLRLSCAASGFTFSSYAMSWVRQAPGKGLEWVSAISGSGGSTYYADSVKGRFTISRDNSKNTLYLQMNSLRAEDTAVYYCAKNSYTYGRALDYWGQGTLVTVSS
VL: SSELTQDPAVSVALGQTVRITCQGDSLRSYYASWYQQKPGQAPVLVIYGKNNRPSGIPDRFSGSSSGNTASLTITGAQAEDEADYYCNSRNVRGKLVFGGGTKLTVL
notes: also called R9E10 human IgG1 antibody
For B9, in [6], the equilibrium dissociation constant (Kd) came to 6.2 nM.

B10: 51A12 IgG (antibody, V domains shown)
VH: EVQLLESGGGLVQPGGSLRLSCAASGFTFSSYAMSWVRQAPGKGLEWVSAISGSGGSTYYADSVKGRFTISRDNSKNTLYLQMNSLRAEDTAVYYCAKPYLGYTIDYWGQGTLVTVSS
VL: SSELTQDPAVSVALGQTVRITCQGDSLRSYYASWYQQKPGQAPVLVIYGKNNRPSGIPDRFSASSSGNTASLTITGAQAEDEADYYCNSRDICCNRSVRNFGGGTKLTVL
notes: also called 51A12 human IgG1 antibody; clone 51A12 IgG
In [6], B10 yielded a Kd of 200 nM. Also, in assay [8], binding was put at a Kd of 0.21 nM, the off-rate constant (koff) turned out to be 7.34e-05 s⁻¹ and the association rate constant (kon) came to 350000 M⁻¹ s⁻¹.

B11: 51A12_E7 human IgG1 antibody (antibody, V domains shown)
VH: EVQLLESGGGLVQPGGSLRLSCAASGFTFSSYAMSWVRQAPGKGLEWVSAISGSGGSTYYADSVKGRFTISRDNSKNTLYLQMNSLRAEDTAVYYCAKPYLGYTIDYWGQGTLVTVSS
VL: SSELTQDPAVSVALGQTVRITCQGDSLRSYYASWYQQKPGQAPVLVIYGKNNRPSGIPDRFSGSSSGNTASLTITGAQAEDEADYYCNSRDYRYNRAVRPFGGGTKLTVL
notes: also called 51A12_E7 IgG1-converted antibody
As for B11, the binding result in assay [9] is given as “binds”.

B12: 51A12 Fab (Fab, V domains shown)
VH: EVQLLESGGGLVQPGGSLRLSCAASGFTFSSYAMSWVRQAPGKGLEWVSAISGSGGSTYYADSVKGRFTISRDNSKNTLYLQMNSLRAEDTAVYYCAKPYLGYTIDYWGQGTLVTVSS
VL: SSELTQDPAVSVALGQTVRITCQGDSLRSYYASWYQQKPGQAPVLVIYGKNNRPSGIPDRFSASSSGNTASLTITGAQAEDEADYYCNSRDICCNRSVRNFGGGTKLTVL
notes: Human lambda Fab from E. coli, purified by IMAC; also called clone 51A12; parental clone 51A12
For B12, in [7], the equilibrium dissociation constant (Kd) was found to be 0.57 nM, the dissociation rate constant (koff) was found to be 6.28e-05 s⁻¹ and the kon stood at 110000 M⁻¹ s⁻¹. For the same molecule, in [8], the Kd was 0.571 nM, the off-rate constant (koff) amounted to 6.28e-05 s⁻¹ and the kon is 110000 M⁻¹ s⁻¹. In assay [10], this molecule had a Kd of 0.57 nM, a dissociation rate constant (koff) of 6.28e-05 s⁻¹ and a kon of 110000 M⁻¹ s⁻¹.

B13: 51A12_H6 human IgG1 antibody (antibody, V domains shown)
VH: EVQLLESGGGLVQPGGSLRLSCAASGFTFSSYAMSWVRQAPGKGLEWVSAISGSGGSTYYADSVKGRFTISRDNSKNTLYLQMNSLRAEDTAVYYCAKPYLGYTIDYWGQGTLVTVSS
VL: SSELTQDPAVSVALGQTVRITCQGDSLRSYYASWYQQKPGQAPVLVIYGKNNRPSGIPDRFSGSSSGNTASLTITGAQAEDEADYYCNSRDYKWNRVVRHFGGGTKLTVL
notes: also called 51A12_H6 IgG1-converted antibody
Regarding B13, the binding result in assay [11] is on record as “binds”.

B14: 51A12_A6 human IgG1 antibody (antibody, V domains shown)
VH: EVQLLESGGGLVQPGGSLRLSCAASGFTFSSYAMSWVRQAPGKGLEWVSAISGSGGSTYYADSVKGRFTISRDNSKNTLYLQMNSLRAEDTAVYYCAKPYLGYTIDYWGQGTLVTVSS
VL: SSELTQDPAVSVALGQTVRITCQGDSLRSYYASWYQQKPGQAPVLVIYGKNNRPSGIPDRFSGSSSGNTASLTITGAQAEDEADYYCNSRTYSYNRAVRNFGGGTKLTVL
notes: also called 51A12_A6 IgG1-converted antibody
For the molecule B14, the binding result in assay [11] is on record as “binds”.

B15: 51A12_C7 human IgG1 antibody (antibody, V domains shown)
VH: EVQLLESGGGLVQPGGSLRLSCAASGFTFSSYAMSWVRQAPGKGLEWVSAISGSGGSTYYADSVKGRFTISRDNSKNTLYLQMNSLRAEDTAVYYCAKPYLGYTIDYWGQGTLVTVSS
VL: SSELTQDPAVSVALGQTVRITCQGDSLRSYYASWYQQKPGQAPVLVIYGKNNRPSGIPDRFSGSSSGNTASLTITGAQAEDEADYYCNSRDIRYNRVVRPFGGGTKLTVL
notes: also called 51A12_C7 IgG1-converted antibody
On to B15, for which the binding result in assay [9] is recorded as “binds”.

B16: 51A12_H3 human IgG1 antibody (antibody, V domains shown)
VH: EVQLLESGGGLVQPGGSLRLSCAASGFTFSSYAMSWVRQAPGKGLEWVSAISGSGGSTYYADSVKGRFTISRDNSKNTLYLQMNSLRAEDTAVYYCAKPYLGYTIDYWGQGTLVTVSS
VL: SSELTQDPAVSVALGQTVRITCQGDSLRSYYASWYQQKPGQAPVLVIYGKNNRPSGIPDRFSGSSSGNTASLTITGAQAEDEADYYCNSRDYKFNRVVRNFGGGTKLTVL
notes: also called 51A12_H3 IgG1-converted antibody
In the case of B16, the binding result in assay [11] is “binds”.

B17: 51A12_C1 human IgG1 antibody (antibody, V domains shown)
VH: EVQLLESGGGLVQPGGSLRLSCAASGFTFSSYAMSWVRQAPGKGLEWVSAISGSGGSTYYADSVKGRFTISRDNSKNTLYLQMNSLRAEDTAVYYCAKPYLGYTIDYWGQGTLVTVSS
VL: SSELTQDPAVSVALGQTVRITCQGDSLRSYYASWYQQKPGQAPVLVIYGKNNRPSGIPDRFSGSSSGNTASLTITGAQAEDEADYYCNSRSYAFNRVVRNFGGGTKLTVL
notes: also called 51A12_C1 IgG1-converted antibody
On to B17, for which the binding result in assay [9] was “binds”.
